These results are taken from article PMC8079415, “Neutron reflectometry and NMR spectroscopy of full-length Bcl-2 protein reveal its membrane localization and conformation” (Communications Biology, 2021).

Details in all cases: both partners purified
Test [1] has as its target T1, Bim (138-174) BH3 peptide from Homo sapiens (Homo sapiens, N-terminal acetyl (Ac-); C-terminal amide (-NH2)).
T1 construct: Bim, Homo sapiens, residues 138-174; The peptide formed a colloidal suspension in buffer; spectra were recorded on clear samples after centrifugation; also called Bim-BH3 peptide; Bim peptide; source: synthetic peptide, bought: GenScript
As to the kind of experiment: NMR titration; Bim-BH3 peptide added at 1:1, 1:3 and 1:6 molar ratio to 0.4 mM Bcl-2ΔN(1-82); 1H-15N TROSY-HSQC; 5 mM DPC micelles, 20 mM NaPi, 20 mM NaCl, 2 mM TCEP, pH 6.0; clear samples after centrifugation.

Test [2] concerns the target T2, full-length human Bcl-2 protein (human, UniProt P10415 1-239).
T2 construct: three additional N-terminal residues left by the design of the pET-15b expression vector; Bcl-2 (B-cell lymphoma 2), human, full length, 239 aa; 15N (or 13C,15N) uniformly labelled for NMR; Surmise: GSH is what is left after the pET-15b His tag is cut off with thrombin; also called B-cell lymphoma 2; intact human Bcl-2; source: in DPC micelles
Put plainly: NMR titration; Bax-BH3 peptide added at 1:1, 1:3, 1:6 and 1:12 molar ratio to 0.3 mM Bcl-2 or 0.25 mM Bcl-2 ΔTM; 1H-15N TROSY-HSQC, chemical shift perturbations; 5 mM DPC micelles, 20 mM NaPi, 20 mM NaCl, 2 mM TCEP, pH 6.0, 310 K.

The target of test [3] is T3, Bcl-2 ΔTM (aa 1-207) (human, UniProt P10415 1-207).
T3 construct: three additional N-terminal residues left by the design of the pET-15b expression vector; Bcl-2, human, residues 1-207; a stop codon ends the protein at position 207; 15N labelled for NMR; Made from the full-length construct by site-directed mutagenesis (stop codon TAA); also called Bcl-2 ∆TM; soluble variant with the C-terminal anchor removed; source: E. coli, pET-15b, purified as the …
T3 sequence (P10415 other isoform, or with tags, fused parts or gaps mutant): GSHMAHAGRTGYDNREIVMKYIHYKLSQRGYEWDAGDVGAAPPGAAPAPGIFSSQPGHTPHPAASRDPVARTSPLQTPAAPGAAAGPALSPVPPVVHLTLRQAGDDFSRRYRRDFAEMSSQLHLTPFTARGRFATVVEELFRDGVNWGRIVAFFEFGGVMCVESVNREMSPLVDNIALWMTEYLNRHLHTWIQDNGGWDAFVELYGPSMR
Described as above.

Test [4] has as its target T2, full-length human Bcl-2 protein. As to the kind of experiment: NMR titration; Nur77 peptide added at 1:6, 1:12 and 1:24 molar ratio to 0.3 mM Bcl-2; 1H-15N TROSY-HSQC, chemical shift perturbations; 5 mM DPC micelles, 20 mM NaPi, 20 mM NaCl, 2 mM TCEP, pH 6.0.

T1 sequence (peptide, as listed by the source): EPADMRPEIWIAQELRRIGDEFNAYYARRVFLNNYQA

B1: Bcl-2 ΔN(1-82) (domain or fragment, human)
chain: GSHMGPALSPVPPVVHLTLRQAGDDFSRRYRRDFAEMSSQLHLTPFTARGRFATVVEELFRDGVNWGRIVAFFEFGGVMCVESVNREMSPLVDNIALWMTEYLNRHLHTWIQDNGGWDAFVELYGPSMRPLFDFSWLSLKTLLSLALVGACITLGAYLGHK
notes: three additional N-terminal residues left by the design of the pET-15b expression vector; added start methionine: the construct starts its N-terminus with residues MGP (M before G83, P84); Bcl-2, human, the first 82 N-terminal amino acids deleted, C-terminal residues kept (full length is 239 aa); Gene bought from GenScript and sub-cloned into pET-15b; source: E. coli, pET-15b, purified as the …
With B1, the binding result in test [1] is on record as “binds”.

B2: 36-mer Bax-BH3 peptide from Mus musculus (peptide)
peptide: Ac-QPPQDASTKKLSECLRRIGDELDSNMELQRMIADVD-NH2
notes: Bax, Mus musculus, BH3 region, 36 residues; also called Bax-derived BH3 peptide; source: synthetic peptide, bought: GenScript
For the molecule B2, the binding result in test [2] and in test [3] was “binds” throughout.

B3: Nur77 peptide (peptide)
peptide: Ac-FSRSLHSLL-NH2
notes: Nur77 (NR4A1), 9-residue peptide; source: synthetic peptide, bought: GenScript
As to B3, the binding result in test [4] is listed as “binds”.
